Values quoted from earlier work as cited in article doi:10.1101/2022.06.02.22275920v1, “Glucagon/GLP-1 receptor co-agonist NNC9204-1177 reduced body weight in adults with overweight or obesity but was associated with safety issues” (medRxiv, 2022).

Details: type 2 diabetes; 1.0 mg dose level
Description: Indeed, GLP-1 RAs are known to have chronotropic effects; for example, increases in pulse rate have been reported in participants with type 2 diabetes in a MAD trial with semaglutide and in trials with dulaglutide and a dual glucose-dependent insulinotropic polypeptide (GIP) and GLP-1 RA [33]. However, the increase in heart rate for NN1177 far exceeds that observed for semaglutide; for example in the SUSTAIN 6 cardiovascular outcomes trial for semaglutide in type 2 diabetes, a placebo ...

In the case of semaglutide, the “placebo-corrected heart rate increase” value is listed as 3.2 bpm.
